From US20200102399A1, “Methods of Treating Peripheral T Cell Lymphoma Using Anti-CD30 Antibody Drug Conjugate Therapy” (Seattle Genetics, Inc., priority 2018, published 2020)

Tested on: newly diagnosed CD30-positive mature T- and NK-cell neoplasms, including sALCL
Test: Phase 1 study SGN35-011: brentuximab vedotin with CHOP or CHP chemotherapy
Type: in vivo, human
Conditions: given concomitantly with CHP
Text: The clinical safety and activity of brentuximab vedotin administered sequentially and concurrently with multiagent chemotherapy were previously evaluated in a phase 1 study in patients with newly diagnosed CD30-positive mature T- and NK-cell neoplasms, including sALCL (Study SGN35-011). This phase 1 study was implemented to determine the safety and activity of sequential and combination frontline treatment approaches of brentuximab vedotin with CHOP or CHP chemotherapy. The maximum tolerated dose of brentuximab vedotin was 1.8 mg/kg given concomitantly with CHP. At an interim analysis in this study (data presented at the T-Cell Lymphoma Forum 2012), 20 patients in this study had been treated with brentuximab vedotin 1.2 or 1.8 mg/kg given concomitantly with CHP for 6 cycles, followed by continued brentuximab vedotin every 3 weeks for up to 10 additional cycles for responding patients.

## brentuximab vedotin
  maximum tolerated dose: 1.8 mg/kg
